Our source for the Ki values is paper PMC8701324 (2021).

The assay addresses MRG15 MRG domain, amino acids 155-323 (UniProt Q9UBU8-2 155-323). As to the kind of experiment: FP.

MRG15 MRG domain, amino acids 155-323, sequence (Q9UBU8 194-362): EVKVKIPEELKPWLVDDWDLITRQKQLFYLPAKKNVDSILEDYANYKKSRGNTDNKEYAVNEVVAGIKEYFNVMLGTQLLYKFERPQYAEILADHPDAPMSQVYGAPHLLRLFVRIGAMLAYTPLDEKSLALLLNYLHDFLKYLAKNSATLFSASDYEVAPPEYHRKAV

What is called Ki is the equilibrium dissociation constant of an inhibitor or competing ligand from its target. A low value points to a stronger hold on the target. Take MLSLKQLLSFLSITDFQLPDEDFGPLKLEKVKSC [6xHis-PALB2^597-630]: affinity was put at a Ki of 9.8 nM.
